The values that follow come from the DeepSol protein solubility set.

A short description of the data set: soluble on expression in E. coli; label from the status in PepcDB or PDB records.
Take “MGSDKIHHHHHHLIPFFLDLVSRTDEARRAFELHPVVTHAAANGMTLQRYRRLLLELYHVVWHFNTVSAAGASRLQDTHKQVRYFLYEHMHEESGHEEWVLADLEQMGVTRDIALNHRPSHYTLALVGYYYYAADRKHPASVLGMLYALEVIASVYGGTLTSAVKESLLLDDERGVSFISSHATLDAEHMADLKTVLDTIEDDEAKDAIEEAVLLTFNHLTHIMVEAHLEEGDISGAPAVNAEHFAISAEKAAA”: the “soluble on expression in E. coli” value is given as “not soluble”.

As to “ENENRVEALEVRLAFQDELLDALNATVARQQKEIDLLQQQIRLLYQQFRNAQPDDAPGGSLRDDIPPHY”, the “soluble on expression in E. coli” value is recorded as “soluble”.

Turning to “MSFRPEYKEYFKQGATARIYNGAFEDAGFYDEVDIKEFEYSREEKTFYYPCPCGDRFEISLEDLRNGEVVARCPSCSLIVCTVYEAEDLEKYL”, the “soluble on expression in E. coli” value is on record as “not soluble”. As for “SNAMNIQALLSEKVSQALIAAGAPADCEPQVRQSAKVQFGDYQANGVMAVAKKLGMAPRQLAEQVLSHLDLNGIANKVEIAGPGFINIFLDPAFLADNVNRALQSERLG”, the “soluble on expression in E. coli” value is recorded as “soluble”. For “MKIMIIGATGMAGQALVTTALNRGHQVVAVARSAEKLATLPSNPNLTSIVRDAFNLTTTDLSAVDAVVDAFATAPDHAYLHVDLATHLISQLRETTTPRVAFILGAGSLTTGDDAHLFVHDLEQDPHAASFISVPQNQLKELTFLRDVDNVNWFGVSPAADFHPGEAQPALLGTDTLLFNDQQQSGTSAGTMAVAILDELENPKHHQTRFTVADKLEHHHHHH”, the “soluble on expression in E. coli” value is “soluble”. For “TPYDPLTLWTTPDPPPNCSLIQELDAKLTLCLTKNGSIVNGIVSLVGVKGNLLNIQSTTTTVGVHLVFDEQGRLITSTPTALVPQASWGYRQGQSVSTNTVTNGLGFMPNVSAYPRPNASEAKSQMVSLTYLQGDTSKPITMKVAFNGITSLNGYSLTFMWSGLSNYINQPFSTPSCSFSYITQE”, the “soluble on expression in E. coli” value was “soluble”. Consider “QSTSNKTLDTLIVTGTRISDRTAAESSSPIDIISQESLEATGTTELATALSRMVPSLNFPRPAVSDGNDAVRPAQLRGLSPDQVLVLVNGKRYHTTALVNLNEIQGRGSAPADLNTIPIAAIERIEVLRDGASAQYGSDAIAGVINIVLKGAGKGGSITGHYGEYKVKDGKQYELSGDTGLSFAGTGKVHFAAQGGHEDQTNRAVPYNDGIIRQRYGDPKINQGAFSYNGSYSPTEGVTFYSFGMVSRRKVLSNGFYRWADDARNRPEIYPEGFLPQIYNVANDTSWVSGMKASTAWGLNIDLSYNYGNNQLTFDVRNSLNNSLGLSSPTAFYAGGLEITQHVLNADFNKSVDWGHLAYPLNLAFGVEWRGEIFNEYQGEEASYINGGVRSSAGTLLPGAQVFSGFKPSDSGGFDRNSHSMYIDLEGNLTEKFSAGVAGRYEHYSDFSNTR”, for which the “soluble on expression in E. coli” value was “not soluble”.

For the sequence “DALEVAEKVTAVIFDKTGTLTKLKESAKPAVQELKRMGIKVGMITGDNWRSAEAISRELNLDLVIAEVLPHQKSEEVKKLQAKEVVAFVGDGINDAPALAQADLGIAVGSGDIVLIRDDLRDVVAAIQ”, the “soluble on expression in E. coli” value is reported as “soluble”.

For “MADPQGFIKYSRREPAHRPVPLRLMDHSEVYEKAPAGQIEEQAARCMDCGVPFCHEGCPLGNIIPEWNDLVRQGRWKEAYDRLHATNNFPEFTGRLCPAPCEGACVLGINDDSVTIKNVELEIVEKAFREGWVQPVIPSMSTGLSVAVVGSGPAGLAAAQQLTRAGHSVTVFERDDRLGGLMRYGVPEYKMENRWIDRRIEQMEAEGTTFQVGTSPRAAELALFDAILLATGTPVARELSVPGHDLNGIHAAMDYLTAQNRINEGDGEVSPINAKGKKVVIIGGGDTGTDCFGTALRQGAESVTQFDIRPRAPFQRADSTPWPMYPNLFRTATAHEEGEYIITGDESADEIAALGLAERAAGSTLGERKFAVNTVEFHGNNGHVTGLTGNQIRVVNGKREPIEGTEFPFEADLVLVALGFTGAEQGGLAHELGVGFDDRGRILRDSEYRSPTNSRVYIAGDNGRGQSLIVWAIAEGRACAAAIDADLMGETALPVAVAPQDVPLAVLEHHHHHH”, the “soluble on expression in E. coli” value is on record as “not soluble”.
